From paper PMC7983153 (The Biochemical journal, 2018)

How the values were obtained:
MtTSPS = MtTSPS (Medicago truncatula, UniProt G7K2D1); assay: X-ray crystallography, […] Å; conditions: co-crystallization, 10-molar excess of ligand, pH 6.5; polyamine-binding groove
[1] = target: MtTSPS-R37E mutant (Medicago truncatula); assay: SEC
[2] = target: thermospermine synthase from Medicago truncatula (MtTSPS) (Medicago truncatula); assay: SAXS
[3] = target: thermospermine synthase from Medicago truncatula (MtTSPS) (Medicago truncatula); assay: crystal structure

For NCCCCNCCCNCCCN [TSPM, thermospermine], the “X-ray crystallography, 1.65 Å” value (MtTSPS) was “TSPM in the MtTSPS-TSPM complex is bound with aminopropyl group pointing outside the pocket”.

MtTSPS-R37E mutant (enzyme) was tested, and the stoichiometry N [1] was 2.

“thermospermine synthase from Medicago truncatula (MtTSPS) (enzyme)” was tested, and the stoichiometry N [2] was 4 and the stoichiometry N [3] was 4.
